# Measured values as given in patent US20090304754.
# How the values were obtained:
# [1] = target: Flavobacterium meningosepticum prolyl endopeptidase, unmodified (UniProt P27028)
# [2] = target: Flavobacterium meningosepticum prolyl endopeptidase conjugated with 20,000 Da PEG (UniProt P27028)
# [3] = target: T1, 26mer peptide derived from gamma-gliadin
# T1 chain: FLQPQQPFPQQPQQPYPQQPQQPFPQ
molecule,measurement,setting,value
chymotrypsin,"kcat/KM of chymotrypsin-catalyzed proteolysis of FM PEP (loss of PEP activity, Michaelis-Menten fit)",[1],The chymotrypsin proteolysis exhibited a kcat/KM of 5.0 for the unmodified PEP
trypsin,"kcat/KM of trypsin-catalyzed proteolysis of FM PEP (loss of PEP activity, Michaelis-Menten fit)",[2],a kcat/KM of 3.4 was obtained for the PEGylated PEP
same,"kcat/KM of trypsin-catalyzed proteolysis of FM PEP (loss of PEP activity, Michaelis-Menten fit)",[1],a kcat/KM of 11.7 M^-1 sec-1 was obtained for unmodified PEP
"Flavobacterium meningosepticum prolyl endopeptidase, unmodified (protein) QNSNVLKYPETKKVSHTDTYFGTQVSDPYRWLEDDRAEDTKAWVQQEVKFTQDYLAQIPFRDQLKKQLMDIWNYEKISAPFKKGKYTYFSKNDGLQAQSVLYRKDAAGKTEVFLDPNKFSEKGTTSLASVSFNKKGTLVAYSISEGGSDWNKIIILDAETKKQLDETLLDVKFSGISWLGDEGFFYSSYDKPKEGSVLSGMTDKHKVYFHKLGTKQSQDELIIGGDKFPRRYIGAYVTDDQRYLVVSAANATNGNELYIKDLKNKTDFIPIITGFDSNVNVADTDGDTLYLFTDKDAPNKRLVKTTIQNPKAETWKDVIAETSEPLEINTGGGYFFATYMKDAIDQVKQYDKNGKLVRAIKLPGSGNASGFGGEKTEKDLYYSFTNYITPPTIFKYNVTTGNSEVYQKPKVKFNPENYVSEQVFYTSSDGTKIPMMISYKKGLKKDGKNPTILYSYGGFNISLQPAFSVVNAIWMENGGIYAVPNIRGGGEYGKKWHDAGTKMQKKNVFNDFIAAGEYLQKNGYTSKEYMALSGRSNGGLLVGATMTMRPDLAKVAFPGVGVLDMLRYNKFTAGAGWAYDYGTAEDSKEMFEYLKSYSPVHNVKAGTCYPSTMVITSDHDDRVVPAHSFKFGSELQAKQSCKNPILIRIETNAGHGAGRSTEQVVAENADLLSFALYEMGIKSLK","time course of cleavage of the 26mer peptide, HPLC",[3],PEGylated enzymes are able to cleave longer substrates at rates comparable to unmodified enzyme
Flavobacterium meningosepticum prolyl endopeptidase conjugated with 5000 Da PEG (protein) QNSNVLKYPETKKVSHTDTYFGTQVSDPYRWLEDDRAEDTKAWVQQEVKFTQDYLAQIPFRDQLKKQLMDIWNYEKISAPFKKGKYTYFSKNDGLQAQSVLYRKDAAGKTEVFLDPNKFSEKGTTSLASVSFNKKGTLVAYSISEGGSDWNKIIILDAETKKQLDETLLDVKFSGISWLGDEGFFYSSYDKPKEGSVLSGMTDKHKVYFHKLGTKQSQDELIIGGDKFPRRYIGAYVTDDQRYLVVSAANATNGNELYIKDLKNKTDFIPIITGFDSNVNVADTDGDTLYLFTDKDAPNKRLVKTTIQNPKAETWKDVIAETSEPLEINTGGGYFFATYMKDAIDQVKQYDKNGKLVRAIKLPGSGNASGFGGEKTEKDLYYSFTNYITPPTIFKYNVTTGNSEVYQKPKVKFNPENYVSEQVFYTSSDGTKIPMMISYKKGLKKDGKNPTILYSYGGFNISLQPAFSVVNAIWMENGGIYAVPNIRGGGEYGKKWHDAGTKMQKKNVFNDFIAAGEYLQKNGYTSKEYMALSGRSNGGLLVGATMTMRPDLAKVAFPGVGVLDMLRYNKFTAGAGWAYDYGTAEDSKEMFEYLKSYSPVHNVKAGTCYPSTMVITSDHDDRVVPAHSFKFGSELQAKQSCKNPILIRIETNAGHGAGRSTEQVVAENADLLSFALYEMGIKSLK,"time course of cleavage of the 26mer peptide, HPLC (disappearance of the intact 26mer peak)",[3],both the 5 kDa and 20 kDa PEGylated FM PEPs were 8-12% faster in cleaving the peptide than the unmodified FM PEP
"Flavobacterium meningosepticum prolyl endopeptidase conjugated with 20,000 Da PEG (protein) QNSNVLKYPETKKVSHTDTYFGTQVSDPYRWLEDDRAEDTKAWVQQEVKFTQDYLAQIPFRDQLKKQLMDIWNYEKISAPFKKGKYTYFSKNDGLQAQSVLYRKDAAGKTEVFLDPNKFSEKGTTSLASVSFNKKGTLVAYSISEGGSDWNKIIILDAETKKQLDETLLDVKFSGISWLGDEGFFYSSYDKPKEGSVLSGMTDKHKVYFHKLGTKQSQDELIIGGDKFPRRYIGAYVTDDQRYLVVSAANATNGNELYIKDLKNKTDFIPIITGFDSNVNVADTDGDTLYLFTDKDAPNKRLVKTTIQNPKAETWKDVIAETSEPLEINTGGGYFFATYMKDAIDQVKQYDKNGKLVRAIKLPGSGNASGFGGEKTEKDLYYSFTNYITPPTIFKYNVTTGNSEVYQKPKVKFNPENYVSEQVFYTSSDGTKIPMMISYKKGLKKDGKNPTILYSYGGFNISLQPAFSVVNAIWMENGGIYAVPNIRGGGEYGKKWHDAGTKMQKKNVFNDFIAAGEYLQKNGYTSKEYMALSGRSNGGLLVGATMTMRPDLAKVAFPGVGVLDMLRYNKFTAGAGWAYDYGTAEDSKEMFEYLKSYSPVHNVKAGTCYPSTMVITSDHDDRVVPAHSFKFGSELQAKQSCKNPILIRIETNAGHGAGRSTEQVVAENADLLSFALYEMGIKSLK","time course of cleavage of the 26mer peptide, HPLC (disappearance of the intact 26mer peak)",[3],both the 5 kDa and 20 kDa PEGylated FM PEPs were 8-12% faster in cleaving the peptide than the unmodified FM PEP
